Assay [1] has as its target T1, TGF-β1 (Sino Biological, Cat. No. 10804-HNAC) (UniProt P01137 279-390). Nature of the assay: bridging ELISA: TGF-β1 coated, antibody titrated, biotinylated human PD-1 and streptavidin-HRP for detection. (In an ELISA, binding on a coated surface is turned into a signal by an enzyme label.)
Assay [2] deals with T2, PD1-His (human, UniProt Q15116 25-170).
T2 construct: extracellular domain; In-house protein; also called extracellular domain protein of human PD-1 with a 6*His tag
Nature of the assay: ELISA, plate coated with PD1-His.

Assay [3] deals with T3, biotinylated human PD-1 extracellular recombinant protein (Sino Biological, Cat. No. 10377-H08H-B) (human, UniProt Q15116 25-170, biotinylated).
T3 construct: extracellular domain; Bought; detection reagent in the bridging ELISAs
Nature of the assay: bridging ELISA: TGF-β1 coated, antibody titrated, biotinylated human PD-1 and streptavidin-HRP for detection.

Assay [4] deals with T1, TGF-β1 (Sino Biological, Cat. No. …). The assay is described as follows: ELISA, plate coated with TGF-β1.
Assay [5] has as its target T4, VEGF165-His (human, UniProt P15692-4 27-191).
T4 construct: also called Human VEGF165 with a 6*His tag
T4 sequence: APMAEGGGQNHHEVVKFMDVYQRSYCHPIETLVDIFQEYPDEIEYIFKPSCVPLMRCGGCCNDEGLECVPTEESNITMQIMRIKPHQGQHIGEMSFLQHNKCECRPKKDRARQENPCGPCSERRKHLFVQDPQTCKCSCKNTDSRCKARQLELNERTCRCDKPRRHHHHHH
The assay is described as follows: ELISA, VEGF165-His coated at 10 ng/well.

In assay [6] the target is T3, biotinylated human PD-1 extracellular …. The assay is described as follows: bridging ELISA: VEGF165 coated, antibody titrated, biotinylated human PD-1 at 200 ng/ml and streptavidin-HRP for detection.
Assay [7] deals with T5, recombinant VEGF165 (Acrobiosystems, Cat. No. VE5-H4210) (UniProt P15692-4 27-191).
T5 construct: Bought; construct not described
The description is as above.

Assay [8] concerns the target T2, PD1-His. The assay is described as follows: SPR, Biacore 8K, antibody captured on Protein A/G chip, PD1-His injected. Background: Surface plasmon resonance follows binding to a sensor surface in real time, without labels.
Assay [9] concerns the target T4, VEGF165-His. The assay is described as follows: SPR, Biacore 8K, antibody captured on Protein A/G chip, VEGF165-His injected.

Values joined by “and” are separate entries in the source; they are usually repeats but may differ in a detail not shown here. Equal entries are not always repeated.

Data on 7 molecules can be found in patent publication US20220259330A1 (SUNSHINE GUOJIAN PHARMACEUTICAL SHANGHAI, published 2022).

Usually EC50 stands for the concentration needed to bring the measured effect to its halfway point. What is called Kd is the free concentration of one partner at which half of the binding sites on the other are occupied at equilibrium, for simple one-to-one binding. One may read the koff as the first-order rate constant of dissociation. A high value points to fast dissociation. The term kon denotes the rate constant with which the complex forms. A lower kon goes with slow association.

T1 sequence (P01137 279-390 limits assumed): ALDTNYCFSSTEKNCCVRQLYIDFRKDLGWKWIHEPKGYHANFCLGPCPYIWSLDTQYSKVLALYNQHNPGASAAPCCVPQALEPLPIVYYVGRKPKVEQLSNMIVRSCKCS
T2 sequence (Q15116 other isoform, or with tags, fused parts or gaps): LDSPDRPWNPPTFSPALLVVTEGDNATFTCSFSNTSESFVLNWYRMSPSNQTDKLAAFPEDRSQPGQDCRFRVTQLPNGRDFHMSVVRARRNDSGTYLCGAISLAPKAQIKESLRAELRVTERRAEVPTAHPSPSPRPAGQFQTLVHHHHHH
T3 sequence (Q15116 25-170): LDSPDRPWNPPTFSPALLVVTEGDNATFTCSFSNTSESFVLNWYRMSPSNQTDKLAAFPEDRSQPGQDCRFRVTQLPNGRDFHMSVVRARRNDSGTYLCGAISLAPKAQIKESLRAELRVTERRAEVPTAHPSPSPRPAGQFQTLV

B1: 14-Hu (antibody, human IgG4 S228P, kappa, V domains shown)
VH: QVQLVQSGAEVKKPGASVKVSCKASGYSFTGYTMNWVRQAPGQGLEWIGLINPYNGDTSYNQKFKGRATVTVDKSTSTAYMELSSLRSEDTAVYYCARWRYTMDYWGQGTLVTVSS
VL: DIVLTQSPASLAVSPGQRATITCRASESVDNYGNSFMNWYQQKPGQPPKPLIYFASNLESGVPARFSGSGSRTDFTLTINPVEADDTANYYCQQNNEAPPTFGQGTKVEIKR
notes: Humanized anti-PD-1, IgG4 (S228P), kappa; also called 14-Hu-HC+14-Hu-LC
In the case of B1, in [1], the binding result is recorded as “no binding”. In addition, the concentration for a half-maximal effect (EC50) with PD1-His [2] was 0.392 nM and 0.432 nM.

B2: mAb127-HC+14-Hu-LC (antibody, human IgG4 S228P, kappa, V domains shown)
VH: QVQLVQSGAEVKKPGASVKVSCKASGYTFTSEWMNWVRQAPGQGLEWMGQIFPALGSTNYNEMYEGRVTMTTDTSTSTAYMELRSLRSDDTAVYYCARGIGNYALDAMDYWGQGTLVTVSS
VL: DIVLTQSPASLAVSPGQRATITCRASESVDNYGNSFMNWYQQKPGQPPKPLIYFASNLESGVPARFSGSGSRTDFTLTINPVEADDTANYYCQQNNEAPPTFGQGTKVEIKR
notes: Hybrid antibody
On to B2, for which the binding result in [3] is given as “no binding”. Besides, the EC50 in assay [4] is 0.0711 nM and 0.0803 nM.

B3: 20-Hu-HC+601-LC (antibody, human IgG4 S228P, kappa, V domains shown)
VH: EVQLVESGGGLVQPGGSLRLSCAASGFVFSNYDMSWVRQAPGKRLEWVATISGGGGYTYYSDSVKGRFTISRDNAKNSLYLQMNSLRAEDTAVYYCASPYGHYGFEYWGQGTLVTVSS
VL: DIQMTQSPSSLSASVGDRVTITCSASQDISNYLNWYQQKPGKAPKVLIYFTSSLHSGVPSRFSGSGSGTDFTLTISSLQPEDFATYYCQQYSTVPWTFGQGTKVEIKR
notes: Hybrid antibody
On to B3, for which the binding result with VEGF165-His [5] is on record as “no binding”. Further, the EC50 with PD1-His [2] is 0.625 nM and 0.975 nM.

B4: 601 (antibody, human IgG1, kappa, V domains shown)
VH: EVQLVESGGGLVQPGGSLRLSCAASGYTFTNYGMNWVRQAPGKGLEWVGWINTYTGEPTYAADFKRRFTFSLDTSKSTAYLQMNSLRAEDTAVYYCAKYPHYYGSSHWYFDVWGQGTLVTVSS
VL: DIQMTQSPSSLSASVGDRVTITCSASQDISNYLNWYQQKPGKAPKVLIYFTSSLHSGVPSRFSGSGSGTDFTLTISSLQPEDFATYYCQQYSTVPWTFGQGTKVEIKR
notes: Anti-VEGF, IgG1, kappa; also called Bevacizumab
As to B4, in assay [6], the binding result is reported as “no binding”.

B5: 20-Hu-HC+601-LC-V94L (antibody, human IgG4 S228P, kappa, V domains shown)
VH: EVQLVESGGGLVQPGGSLRLSCAASGFVFSNYDMSWVRQAPGKRLEWVATISGGGGYTYYSDSVKGRFTISRDNAKNSLYLQMNSLRAEDTAVYYCASPYGHYGFEYWGQGTLVTVSS
VL: DIQMTQSPSSLSASVGDRVTITCSASQDISNYLNWYQQKPGKAPKVLIYFTSSLHSGVPSRFSGSGSGTDFTLTISSLQPEDFATYYCQQYSTLPWTFGQGTKVEIKR
As for B5, the binding result in [7] is recorded as “no binding”. In the assay with PD1-His [8], this molecule yielded a dissociation constant Kd of 1.59 nM, a koff of 4.54e-05 s⁻¹ and a kon of 28600 M⁻¹ s⁻¹. Moreover, in the assay with PD1-His [2], the EC50 is 0.308 nM and 0.331 nM.

B6: 601-HC+601-LC-V94L (antibody, human IgG1, kappa, V domains shown)
VH: EVQLVESGGGLVQPGGSLRLSCAASGYTFTNYGMNWVRQAPGKGLEWVGWINTYTGEPTYAADFKRRFTFSLDTSKSTAYLQMNSLRAEDTAVYYCAKYPHYYGSSHWYFDVWGQGTLVTVSS
VL: DIQMTQSPSSLSASVGDRVTITCSASQDISNYLNWYQQKPGKAPKVLIYFTSSLHSGVPSRFSGSGSGTDFTLTISSLQPEDFATYYCQQYSTLPWTFGQGTKVEIKR
In the assay with VEGF165-His [9], B6 gave a Kd of 0.00746 nM, a koff of 2.91e-05 s⁻¹ and a kon of 3.9e+06 M⁻¹ s⁻¹.

B7: 20-Hu (antibody, human IgG4 S228P, kappa, V domains shown)
VH: EVQLVESGGGLVQPGGSLRLSCAASGFVFSNYDMSWVRQAPGKRLEWVATISGGGGYTYYSDSVKGRFTISRDNAKNSLYLQMNSLRAEDTAVYYCASPYGHYGFEYWGQGTLVTVSS
VL: DIQMTQSPSSLSASVGDRVTITCSASQGISNFLSWYQQKPGKTVKLLIYYTSSLHSGVPSRFSGSGSGTDYTFTISSLQPEDIATYYCQQYSNLPWTFGQGTKVEIKR
notes: Humanized anti-human PD-1, IgG4 (S228P), kappa; also called 20-Humanized; 20-Hu-HC+20-Hu-LC
As for B7, the binding result in the assay with VEGF165-His [5] is listed as “no binding”. Also, the EC50 with PD1-His [2] was found to be 0.206 nM.
